In one series the target is T1, KDM5A-K152E (UniProt P29375 1-801, K152E).
T1 sequence: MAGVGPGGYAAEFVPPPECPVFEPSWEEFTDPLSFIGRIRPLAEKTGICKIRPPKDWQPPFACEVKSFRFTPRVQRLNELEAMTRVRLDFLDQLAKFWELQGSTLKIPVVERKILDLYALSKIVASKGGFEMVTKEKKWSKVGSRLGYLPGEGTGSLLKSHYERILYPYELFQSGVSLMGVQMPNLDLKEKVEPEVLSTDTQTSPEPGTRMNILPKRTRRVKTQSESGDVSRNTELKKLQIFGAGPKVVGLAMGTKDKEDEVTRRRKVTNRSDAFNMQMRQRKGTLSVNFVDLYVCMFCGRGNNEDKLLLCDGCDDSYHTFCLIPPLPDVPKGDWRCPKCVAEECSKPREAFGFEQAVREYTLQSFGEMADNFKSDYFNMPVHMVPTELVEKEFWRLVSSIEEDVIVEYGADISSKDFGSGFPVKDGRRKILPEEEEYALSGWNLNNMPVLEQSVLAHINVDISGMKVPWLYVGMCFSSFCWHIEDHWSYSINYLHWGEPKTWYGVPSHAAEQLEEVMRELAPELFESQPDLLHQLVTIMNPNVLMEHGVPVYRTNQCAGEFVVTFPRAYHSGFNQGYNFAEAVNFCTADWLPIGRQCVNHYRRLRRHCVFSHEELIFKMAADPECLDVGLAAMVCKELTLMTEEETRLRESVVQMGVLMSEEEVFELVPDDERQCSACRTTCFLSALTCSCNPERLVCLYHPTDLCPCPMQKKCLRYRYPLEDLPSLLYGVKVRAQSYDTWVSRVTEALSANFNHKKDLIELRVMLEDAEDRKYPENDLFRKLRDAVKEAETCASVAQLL
Description: EMSA; Nucleosome EMSA: 100 nM nucleosome, 50 mM HEPES pH 7.5, 50 mM KCl, 1 mM BME, 0.01% Tween-20, 0.01% BSA, 5% sucrose, 1 h on ice, gel at 4 C; DNA EMSA: 100 nM DNA, TE with 10% glycerol, gel at 4 C. To be noted: protein: recombinant; tags: 6xHis removed by TEV; blunt.

A further series concerns the target T2, KDM5A-MutR (UniProt P29375 1-801, R210A;R217A;R219A;R220A;R232A;R264A;R265A;R266A;R271A;R280A;R282A).
T2 sequence: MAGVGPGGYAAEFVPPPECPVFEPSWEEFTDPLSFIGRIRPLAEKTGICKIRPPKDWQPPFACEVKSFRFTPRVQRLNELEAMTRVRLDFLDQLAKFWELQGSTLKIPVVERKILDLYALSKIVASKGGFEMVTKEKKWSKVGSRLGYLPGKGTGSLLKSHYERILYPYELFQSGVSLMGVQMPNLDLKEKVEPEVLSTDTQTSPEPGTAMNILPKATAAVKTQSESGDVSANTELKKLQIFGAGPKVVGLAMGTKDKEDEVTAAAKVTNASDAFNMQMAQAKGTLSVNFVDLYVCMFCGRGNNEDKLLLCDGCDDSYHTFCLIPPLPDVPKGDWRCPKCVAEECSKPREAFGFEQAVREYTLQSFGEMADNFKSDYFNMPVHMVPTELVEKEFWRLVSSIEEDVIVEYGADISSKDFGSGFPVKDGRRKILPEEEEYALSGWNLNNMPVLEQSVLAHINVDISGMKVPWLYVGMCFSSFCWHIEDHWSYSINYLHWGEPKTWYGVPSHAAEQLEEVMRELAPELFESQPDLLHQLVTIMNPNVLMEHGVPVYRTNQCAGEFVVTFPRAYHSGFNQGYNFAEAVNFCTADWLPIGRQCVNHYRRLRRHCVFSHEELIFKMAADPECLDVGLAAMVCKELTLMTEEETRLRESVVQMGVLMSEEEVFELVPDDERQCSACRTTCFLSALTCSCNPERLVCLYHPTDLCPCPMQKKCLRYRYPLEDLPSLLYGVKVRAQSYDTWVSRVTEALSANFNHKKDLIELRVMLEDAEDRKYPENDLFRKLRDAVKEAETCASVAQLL
The description is as above. To be noted: protein: recombinant; tags: 6xHis removed by TEV; blunt.

Binding signal data for one molecule are collected here from publication PMC12443421.

B1: ARID-C1 (dsDNA)
DNA 1: GGGCTCCCGCCCCACGAAAAG
DNA 2: CTTTTCGTGGGGCGGGAGCCC
In the case of B1, the binding signal with KDM5A-K152E and with KDM5A-MutR was ~3 fold lower affinity than KDM5A-CAT each time.
